These results are taken from PMC6557629.

This assay concerns the target Recombinant murine serum amyloid A isoform 1.1 (murine). Nature of the assay: cross-linking; SAA-POPC complexes hydrolyzed by sPLA2-III (0.5 mg/ml protein) with glutaraldehyde 0.01-0.08%, 30 min at 24°C, 50 mM sodium phosphate, 150 mM NaCl, pH 7.5; quenched with 100 mM Tris; SDS PAGE.

As a reminder, the stoichiometry N is a count of units in the complex or per binding partner.

Consider “Recombinant murine serum amyloid A isoform 1.1 (natural protein)”, for which the stoichiometry N is 6.
